Publication PMC11018872, “Dynamic inter-domain transformations mediate the allosteric regulation of human 5, 10-methylenetetrahydrofolate reductase” (Nature Communications, 2024)

Target: the molecule itself
Assay: negative stain EM; TEV-cleaved purified MTHFRFL, 50 nM in 20 mM HEPES pH 7.5, 200 mM NaCl with 5 mM SAM or 2.6 mM SAH; 2D classes

B1: full-length human 5,10-methylenetetrahydrofolate reductase (MTHFRFL aa 1-656) (enzyme)
chain: not shown
modifications: multiply phosphorylated during its recombinant expression (N-terminal Ser/Thr-rich region; sites not given)
notes: human 5,10-methylenetetrahydrofolate reductase (MTHFR), full-length, aa 1-656, wild type; Homodimer; also called MTHFRFL^SAM; MTHFRFL^(SAH (symm)); source: baculovirus/insect cell system, SF9 cells, purified (Ni-NTA, Superdex 200 size exclusion); flag/His10 tag removed with TEV protease; not shown: FLAG, C-terminal, cleaved; His10, C-terminal, cleaved
binding result: binds
